Experimental data as given in patent publication EP4786496A1 (Nanjing Iaso Biotechnology Co., Ltd., dated 2026).

T1: BAFF-R on the surface of BAFF-R-positive cells (K562-BAFF-R, NALM6, RS4, MEC1, JEKO1) (human, UniProt Q96RJ3 1-184)
T1 sequence: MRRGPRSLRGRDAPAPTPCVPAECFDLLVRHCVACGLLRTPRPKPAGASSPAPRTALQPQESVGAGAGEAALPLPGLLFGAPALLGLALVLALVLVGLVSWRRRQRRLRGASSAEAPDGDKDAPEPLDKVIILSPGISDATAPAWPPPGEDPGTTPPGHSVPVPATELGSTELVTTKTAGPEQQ

T2: His-tagged human BAFF-R antigen (BAR-H52H3, Acro) (human, UniProt Q96RJ3 7-71, limits assumed)
T2 construct: Bought protein used in BLI; not shown: His tag
T2 sequence: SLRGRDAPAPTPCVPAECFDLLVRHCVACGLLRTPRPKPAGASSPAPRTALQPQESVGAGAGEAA

B1: 0205-1, VH-Fab-Fc 1+1 α-BAFF-R VH×α-CD3 Fab bispecific antibody (bispecific antibody, human IgG4 S228P, lambda, F234A L235A)
heavy: EVQLVESGGGLVQPKGSLKLSCAASGFTFNTYAMNWVRQAPGKGLEWVARIRSKYNNYATYYADSVKDRFTISRDDSQSILYLQMNNLKTEDTAMYYCVRHGNFGNSYVSWFAYWGQGTLVTVSSASTKGPSVFPLAPCSRSTSESTAALGCLVKDYFPEPVTVSWNSGALTSGVHTFPAVLQSSGLYSLSSVVTVPSSSLGTKTYTCNVDHKPSNTKVDKRVESKYGPPCPPCPAPEAAGGPSVFLFPPKPKDTLMISRTPEVTCVVVDVSQEDPEVQFNWYVDGVEVHNAKTKPREEQFNSTYRVVSVLTVLHQDWLNGKEYKCKVSNKGLPSSIEKTISKAKGQPREPQVYTLPPCQEEMTKNQVSLWCLVKGFYPSDIAVEWESNGQPENNYKTTPPVLDSDGSFFLYSRLTVDKSRWQEGNVFSCSVMHEALHNHYTQKSLSLSLGK
light: QAVVTQESALTTSPGETVTLTCRSSTGAVTTSNYANWVQEKPDHLFTGLIGGTNKRAPGVPARFSGSLIGDKAALTITGAQTEDEAIYFCALWYSNLWVFGGGTKLTVLGQPKAAPSVTLFPPSSEELQANKATLVCLISDFYPGAVTVAWKADSSPVKAGVETTTPSKQSNNKYAASSYLSLTPEQWKSHKSYSCQVTHEGSTVEKTVAPTECS
chain: EVQLVESGGGVVQPGRSLRLTCAASGFTFSTSGMYWIRQAPGKGLEWVSYISSSSSTIYYADSVKGRFTISRDNSKNTLYLQMNSLRAEDTAVYYCVTQSCGAGKCYPGVWGQGTTVTVSSESKYGPPCPPCPAPEAAGGPSVFLFPPKPKDTLMISRTPEVTCVVVDVSQEDPEVQFNWYVDGVEVHNAKTKPREEQFNSTYRVVSVLTVLHQDWLNGKEYKCKVSNKGLPSSIEKTISKAKGQPREPQVCTLPPSQEEMTKNQVSLSCAVKGFYPSDIAVEWESNGQPENNYKTTPPVLDSDGSFFLVSRLTVDKSRWQEGNVFSCSVMHEALHNHYTQKSLSLSLGK
notes: IgG4 Fc with S228P/F234A/L235A, knobs on the CD3 side, holes on the BAFF-R side
B2: 0205-3, VH2-Fab2-Fc 2+2 α-BAFF-R VH×α-CD3 Fab bispecific antibody (bispecific antibody)
heavy: not shown
light: B1 light
notes: To be checked
B3: 0205-2, VH2-Fab-Fc 2+1 α-BAFF-R VH×α-CD3 Fab bispecific antibody (bispecific antibody)
heavy 1: EVQLVESGGGVVQPGRSLRLTCAASGFTFSTSGMYWIRQAPGKGLEWVSYISSSSSTIYYADSVKGRFTISRDNSKNTLYLQMNSLRAEDTAVYYCVTQSCGAGKCYPGVWGQGTTVTVSSGGGGSGGGGSEVQLVESGGGLVQPKGSLKLSCAASGFTFNTYAMNWVRQAPGKGLEWVARIRSKYNNYATYYADSVKDRFTISRDDSQSILYLQMNNLKTEDTAMYYCVRHGNFGNSYVSWFAYWGQGTLVTVSSASTKGPSVFPLAPCSRSTSESTAALGCLVKDYFPEPVTVSWNSGALTSGVHTFPAVLQSSGLYSLSSVVTVPSSSLGTKTYTCNVDHKPSNTKVDKRVESKYGPPCPPCPAPEAAGGPSVFLFPPKPKDTLMISRTPEVTCVVVDVSQEDPEVQFNWYVDGVEVHNAKTKPREEQFNSTYRVVSVLTVLHQDWLNGKEYKCKVSNKGLPSSIEKTISKAKGQPREPQVYTLPPCQEEMTKNQVSLWCLVKGFYPSDIAVEWESNGQPENNYKTTPPVLDSDGSFFLYSRLTVDKSRWQEGNVFSCSVMHEALHNHYTQKSLSLSLGK
light: B1 light
heavy 2: B1 chain
notes: To be checked
B4: SP34 monoclonal antibody (anti-CD3) (antibody, human IgG4 S228P, lambda, V domains shown)
VH: EVQLVESGGGLVQPKGSLKLSCAASGFTFNTYAMNWVRQAPGKGLEWVARIRSKYNNYATYYADSVKDRFTISRDDSQSILYLQMNNLKTEDTAMYYCVRHGNFGNSYVSWFAYWGQGTLVTVSS
VL: QAVVTQESALTTSPGETVTLTCRSSTGAVTTSNYANWVQEKPDHLFTGLIGGTNKRAPGVPARFSGSLIGDKAALTITGAQTEDEAIYFCALWYSNLWVFGGGTKLTVLG
notes: also called α-CD3 monoclonal antibody

What follows are binders tested against T1, BAFF-R on the surface of … (assay: cell-based or functional assay).

Binder | TDCC reporter gene cell activation by K562-BAFF-R, EC50 | TDCC reporter gene cell activation by K562-BAFF-R, top
B1 | 0.059 nM | 9430
B2 | 0.041 nM | 10900
B3 | 0.054 nM | 12300

Molecular target: T1, BAFF-R on the surface of …
Experiment: cell-based or functional assay
Remark: another data set of the same source

Binder | TDCC reporter gene cell activation by Nalm6, EC50 | TDCC reporter gene cell activation by Nalm6, top
B1 | 3.2 nM | 381
B2 | 0.021 nM | 1870
B3 | 0.068 nM | 2430

Molecular target: T1, BAFF-R on the surface of …
Experiment: cell-based or functional assay
Remark: another data set of the same source

Binder | TDCC reporter gene cell activation by Mec-1, EC50 | TDCC reporter gene cell activation by Mec-1, top
B1 | 7.31 nM | 793
B2 | 0.047 nM | 1490
B3 | 0.5 nM | 2930

Molecular target: T1, BAFF-R on the surface of …
Experiment: cell-based or functional assay
Remark: another data set of the same source

Binder | TDCC reporter gene cell activation by Jeko-1, EC50 | TDCC reporter gene cell activation by Jeko-1, top
B1 | 11.7 nM | 864
B2 | 0.046 nM | 1230
B3 | 0.23 nM | 1650

Molecular target: T1, BAFF-R on the surface of …
Experiment: cell-based or functional assay
Remark: another data set of the same source

Binder | killing of Jeko-1 cells by PBMC (Donor 301C), 24hr, top (%) | killing of Jeko-1 cells by PBMC (Donor 301C), 48hr, top (%) | killing of Jeko-1 cells by PBMC (Donor 301C), 24hr, EC50(pM) | killing of Jeko-1 cells by PBMC (Donor 301C), 48hr, EC50(pM)
B1 | -22.3% | -12.2% |  | 
B2 | 28.5% | 102% | 18 pM | 8.78 pM
B3 | 57.8% | 99.9% | 52.8 pM | 9.74 pM

Molecular target: T1, BAFF-R on the surface of …
Experiment: cell-based or functional assay
Remark: another data set of the same source

Binder | killing of Jeko-1 cells by PBMC (Donor 605C), 24hr, top (%) | killing of Jeko-1 cells by PBMC (Donor 605C), 48hr, top (%) | killing of Jeko-1 cells by PBMC (Donor 605C), 24hr, EC50(pM) | killing of Jeko-1 cells by PBMC (Donor 605C), 48hr, EC50(pM)
B1 | -12.6% | -12.8% |  | 
B2 | 6.34% | 102% | 2.48 pM | 2.81 pM
B3 | 39% | 101% | 13.1 pM | 3.58 pM

These binders were tested against T2, His-tagged human BAFF-R antigen … (assay: BLI (ForteBio Octet), His-tagged antigen on HIS1K sensor, antibody in solution).

Binder | Kd | koff | kon
B1 | 1.78 nM | 0.00245 s⁻¹ | 1.38e+06 M⁻¹ s⁻¹
B2 | 1.27 nM | 0.00136 s⁻¹ | 1.07e+06 M⁻¹ s⁻¹
B3 | 1.12 nM | 0.000976 s⁻¹ | 875000 M⁻¹ s⁻¹

Each binder was assayed against T3, His-tagged human CD3E&D (CDD-H52W1, Acro) (human, UniProt P07766 23-126; P04234 22-105) in the same assay as above.
T3 construct: Bought His-tagged heterodimer; also called CD3E&D heterodimer complex
T3 sequence (P07766 23-126, chain 1 of 2): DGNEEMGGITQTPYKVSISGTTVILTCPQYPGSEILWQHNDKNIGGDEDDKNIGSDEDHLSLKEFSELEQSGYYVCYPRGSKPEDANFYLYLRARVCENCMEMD
T3 sequence (P04234 22-105, chain 2 of 2): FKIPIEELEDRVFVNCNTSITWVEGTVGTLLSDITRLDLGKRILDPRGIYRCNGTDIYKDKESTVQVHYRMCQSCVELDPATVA

Binder | Kd | koff | kon
B1 | 10.7 nM | 0.00811 s⁻¹ | 759000 M⁻¹ s⁻¹
B2 | 10.6 nM | 0.0032 s⁻¹ | 302000 M⁻¹ s⁻¹
B3 | 10.3 nM | 0.00314 s⁻¹ | 306000 M⁻¹ s⁻¹
B4 | 6.38 nM | 0.00301 s⁻¹ | 473000 M⁻¹ s⁻¹

The binders below were run against T4, His-tagged human CD3E&G (CDG-H52W6, Acro) (human, UniProt P07766 23-126; P09693 23-111) in the same assay as above.
T4 construct: Bought His-tagged heterodimer; also called CD3E&G heterodimer complex
T4 sequence (P07766 23-126, chain 1 of 2): as the sequence (P07766 23-126, chain 1 of 2) above
T4 sequence (P09693 23-111, chain 2 of 2): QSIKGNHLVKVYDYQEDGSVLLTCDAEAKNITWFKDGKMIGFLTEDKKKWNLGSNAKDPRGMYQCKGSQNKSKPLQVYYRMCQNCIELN

Binder | Kd | koff | kon
B1 | 6.68 nM | 0.0278 s⁻¹ | 4.16e+06 M⁻¹ s⁻¹
B2 | 9.03 nM | 0.00251 s⁻¹ | 277000 M⁻¹ s⁻¹
B3 | 11.1 nM | 0.00291 s⁻¹ | 262000 M⁻¹ s⁻¹
B4 | 7.87 nM | 0.0029 s⁻¹ | 369000 M⁻¹ s⁻¹
